In patent CN114573691A (EIGHT HOSPITALS IN AFFILIATED CITY OF GUANGZHOU MEDICAL; …, dated 2022):

Legend:
[1] = target: T1, 新冠病毒SARS-CoV-2变异毒株Omicron(B.1.1.529)S1抗原 (SARS-CoV-2, UniProt P0DTC2 16-685); experiment: SPR (Biacore T200), S1 antigen coupled to CM5 chip, antibody as analyte
T1 construct: domain: S1; also called Omicron S1; Omicron(B.1.1.529)的S1蛋白

[2] = target: T2, 新冠病毒SARS-CoV-2变异毒株Delta(B.1.617.2)S1抗原 (SARS-CoV-2, UniProt P0DTC2 16-685); experiment: as above
T2 construct: domain: S1; also called Delta S1

B1: 中和抗体YB13-208 (antibody, V domains shown)
V domain 1: QITLKESGPTLVKPTQTLTLTCTFSGLSLSTSGVSVGWIRQPPGKAPEWLALIYWDDDKRYSPSLTSRLSITKDTSKNQVVLTMTNMDPVDTATYYCAHPRYYGDSSGYYWIWGQGTMVTVSS
V domain 2: SYELTQPPSVSVSPGQTARITCSGDALPKQYAYWYQQKPGQAPVVVMYKTSERPSGIPERFSGSSSGTTVTLTISGVQAEDEADYYCQSADSSGFYVFGTGTQVTVL
Kd [1]: 3.11 nM
Kd [2]: 0.639 nM

B2: 中和抗体YB9-258 (antibody, V domains shown)
VH: EVQLVESGGGLIQPGGSLRLSCAASGLTVSSNYMHWVRQAPGKGLEWVSVLYAGGSAFYADSVKGRFTISRNNSKNTLYLQMNSLRAEDTAIYYCARGLGDYLDSWGQGTLVTVSS
VL: DIQMTQSPSSVSASVGDRVTITCRASQGIGSWLAWYQQKPGKAPQLLIYAASTLQSGVPPRFSGSGSGTDFTLTITSLQPEDFASYYCQQANSVLALTFGGGTKVEIK
Kd [1]: 0.00417 nM
Kd [2]: 0.833 nM
